Measurements: article PMC3868510

Legend:
[1] = target: soluble truncated αvβ8 integrin conjugated to alkaline phosphatase (UniProt P06756); assay: SPR; Biacore 2000, CM-5 chip; MAb LS-C44264 to placental alkaline phosphatase immobilised by amine coupling and used to capture the soluble integrin-AP; gH/gL injected at 50 µl/min; 25°C; 10 mM HEPES-NaOH pH 7.4, 150 mM NaCl, 0.005% P20; kobs against gH/gL concentration, 1:1 Langmuir
[2] = target: soluble truncated αvβ6 integrin conjugated to alkaline phosphatase (UniProt P06756); assay: as above
Sequence of soluble truncated αvβ6 integrin conjugated to alkaline phosphatase (P06756 31-1048, chain 1 of 2): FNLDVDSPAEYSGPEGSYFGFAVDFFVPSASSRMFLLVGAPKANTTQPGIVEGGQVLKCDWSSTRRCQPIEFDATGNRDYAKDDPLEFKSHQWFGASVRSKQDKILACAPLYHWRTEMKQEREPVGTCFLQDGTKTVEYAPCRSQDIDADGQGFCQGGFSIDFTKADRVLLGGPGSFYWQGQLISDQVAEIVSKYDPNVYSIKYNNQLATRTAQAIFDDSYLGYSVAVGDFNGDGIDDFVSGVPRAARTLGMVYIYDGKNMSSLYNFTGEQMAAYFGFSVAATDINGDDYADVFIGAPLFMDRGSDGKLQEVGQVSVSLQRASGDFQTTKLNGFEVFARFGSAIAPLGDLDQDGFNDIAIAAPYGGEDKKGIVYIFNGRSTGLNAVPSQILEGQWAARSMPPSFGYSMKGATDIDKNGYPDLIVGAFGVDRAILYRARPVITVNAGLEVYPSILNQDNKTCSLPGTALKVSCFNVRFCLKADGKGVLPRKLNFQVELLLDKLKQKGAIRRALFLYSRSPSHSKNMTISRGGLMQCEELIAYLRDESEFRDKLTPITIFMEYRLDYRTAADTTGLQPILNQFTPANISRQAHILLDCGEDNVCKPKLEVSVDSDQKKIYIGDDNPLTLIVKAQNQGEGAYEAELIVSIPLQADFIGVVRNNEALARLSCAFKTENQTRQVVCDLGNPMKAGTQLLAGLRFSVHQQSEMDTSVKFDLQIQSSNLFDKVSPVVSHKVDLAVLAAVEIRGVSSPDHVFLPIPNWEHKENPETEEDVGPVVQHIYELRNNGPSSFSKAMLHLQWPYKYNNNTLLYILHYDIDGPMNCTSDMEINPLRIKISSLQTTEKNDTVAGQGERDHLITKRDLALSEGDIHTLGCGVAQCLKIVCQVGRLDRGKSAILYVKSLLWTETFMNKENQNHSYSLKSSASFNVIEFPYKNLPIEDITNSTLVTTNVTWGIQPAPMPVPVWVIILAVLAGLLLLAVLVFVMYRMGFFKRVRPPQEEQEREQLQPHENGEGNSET
Sequence of soluble truncated αvβ6 integrin conjugated to alkaline phosphatase (P18564 22-709, chain 2 of 2, further chain): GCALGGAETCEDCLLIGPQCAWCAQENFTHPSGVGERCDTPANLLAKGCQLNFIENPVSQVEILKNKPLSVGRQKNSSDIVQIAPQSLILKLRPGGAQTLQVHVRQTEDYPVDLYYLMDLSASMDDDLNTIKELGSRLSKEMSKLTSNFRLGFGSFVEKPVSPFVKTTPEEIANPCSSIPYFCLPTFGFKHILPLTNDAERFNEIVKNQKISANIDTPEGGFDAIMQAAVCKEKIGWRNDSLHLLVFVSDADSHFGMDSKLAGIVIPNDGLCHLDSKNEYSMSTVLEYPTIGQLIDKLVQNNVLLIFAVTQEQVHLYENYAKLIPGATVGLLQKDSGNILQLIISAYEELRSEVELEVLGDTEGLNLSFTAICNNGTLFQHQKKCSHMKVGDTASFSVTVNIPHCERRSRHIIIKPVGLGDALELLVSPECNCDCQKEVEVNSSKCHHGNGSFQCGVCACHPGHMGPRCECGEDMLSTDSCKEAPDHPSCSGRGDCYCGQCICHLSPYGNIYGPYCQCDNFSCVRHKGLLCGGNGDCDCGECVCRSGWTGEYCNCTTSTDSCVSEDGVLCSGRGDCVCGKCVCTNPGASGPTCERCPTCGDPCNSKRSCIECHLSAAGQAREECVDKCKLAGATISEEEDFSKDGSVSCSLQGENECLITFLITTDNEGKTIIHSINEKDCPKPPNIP

Sequence of soluble truncated αvβ8 integrin conjugated to alkaline phosphatase (P06756 31-1048, chain 1 of 2): as the sequence (P06756 31-1048, chain 1 of 2) above
Sequence of soluble truncated αvβ8 integrin conjugated to alkaline phosphatase (P26012 43-684, chain 2 of 2, further chain): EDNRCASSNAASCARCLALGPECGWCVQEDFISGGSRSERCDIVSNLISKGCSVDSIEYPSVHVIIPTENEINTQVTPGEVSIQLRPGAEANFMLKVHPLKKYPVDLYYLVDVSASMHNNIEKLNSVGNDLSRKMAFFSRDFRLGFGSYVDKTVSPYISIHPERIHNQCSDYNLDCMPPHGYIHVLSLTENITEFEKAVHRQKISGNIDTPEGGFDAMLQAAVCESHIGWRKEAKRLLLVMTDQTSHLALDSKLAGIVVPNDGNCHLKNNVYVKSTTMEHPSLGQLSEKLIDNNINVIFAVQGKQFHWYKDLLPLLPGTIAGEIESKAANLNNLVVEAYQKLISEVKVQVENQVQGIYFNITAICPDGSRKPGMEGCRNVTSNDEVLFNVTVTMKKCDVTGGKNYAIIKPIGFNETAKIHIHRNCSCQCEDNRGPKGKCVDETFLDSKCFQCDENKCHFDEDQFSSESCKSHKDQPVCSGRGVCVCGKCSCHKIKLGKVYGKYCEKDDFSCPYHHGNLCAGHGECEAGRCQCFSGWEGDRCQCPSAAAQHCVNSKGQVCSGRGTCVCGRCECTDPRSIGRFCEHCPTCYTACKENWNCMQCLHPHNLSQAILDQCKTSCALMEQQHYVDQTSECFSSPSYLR

Substance: soluble form of HSV gH/gL (gHt/gL) (from UniProt P06477 19-838; P10185 20-224) (complex)
- Kd [1]: 27 nM
- koff [1]: 0.005 s⁻¹
- kon [1]: 207000 M⁻¹ s⁻¹
- Kd [2]: 12 nM
- koff [2]: 0.0018 s⁻¹
- kon [2]: 152000 M⁻¹ s⁻¹
